{"source": "paper PMC12745498", "about": "“Streptococcus pneumoniae HtrA is a dynamic and monomeric virulence factor capable of forming larger oligomeric complexes” (Protein Science : A Publication of the Protein Society, 2025)", "binders": {"B1": {"name": "S. pneumoniae HtrA S234A full ectodomain (residues 59-393) (enzyme)", "chain": "NSTTQAVNKVKDAVVSVITYSANRQNSVFGNDDTDTDSQRISSEGSGVIYKKNDKEAYIVTNNHVINGASKVDIRLSDGTKVPGEIVGADTFSDIAVVKISSEKVTTVAEFGDSSKLTVGETAIAIGSPLGSEYANTVTQGIVSSLNRNVSLKSEDGQAISTKAIQTDTAINPGNAGGPLINIQGQVIGITSSKIATNGGTSVEGLGFAIPANDAINIIEQLEKNGKVTRPALGIQMVNLSNVSTSDIRRLNIPSNVTSGVIVRSVQSNMPANGHLEKYDVITKVDDKEIASSTDLQSALYNHSIGDTIKITYYRNGKEETTSIKLNKSSGDLES", "notes": "HtrA serine protease of Streptococcus pneumoniae, full ectodomain, residues 59-393, catalytic serine changed to alanine; the mutant's own cloning is not described; also called full HtrA S234A ectodomain; catalytic mutant; source: E. coli, purified (monomer and hexamer separated by size-exclusion chromatography)"}, "B2": {"name": "β-casein residues 21-70 (domain or fragment, bovine, UniProt P02666 21-70, looked up)", "chain": "LNVPGEIVESLSSSEESITRINKKIEKFQSEEQQQTEDELQDKIHPFAQT", "modifications": "ends and bridges not checked", "notes": "bovine β-casein, residues 21-70; also called N-terminal segment (21-70); source: recombinantly produced in-house with the hSUMO1 system (as for the HtrA PDZ)"}, "B3": {"name": "S. pneumoniae HtrA PDZ domain (residues 285-393) (domain or fragment, Streptococcus pneumoniae, UniProt A0A0H2ZQD7 285-393, looked up)", "chain": "KVTRPALGIQMVNLSNVSTSDIRRLNIPSNVTSGVIVRSVQSNMPANGHLEKYDVITKVDDKEIASSTDLQSALYNHSIGDTIKITYYRNGKEETTSIKLNKSSGDLES", "notes": "HtrA serine protease of Streptococcus pneumoniae, PDZ domain alone, residues 285-393 (the methods print 285-493); cloned downstream of human SUMO1 to give the PDZ with no overhang; source: E. coli BL21(DE3), purified (Ni column, ULP1 cleavage, Ni column, preparative sizing column); not shown: 6xHis, N-terminal, cleaved; hSUMO1, N-terminal, cleaved"}}, "key": {"[1]": {"molecular_target": "the molecule itself", "assay": "SEC; size-exclusion chromatography of HtrA WT, HtrA S234A, β-casein and a mixture of HtrA S234A with excess β-casein"}, "[2]": {"molecular_target": "B3", "assay": "NMR titration; 250 μM 15N-labeled HtrA PDZ titrated with recombinant β-casein fragments (final 400 μM); 15N-HSQC, global fit of CSPs", "details": "both partners purified"}, "[3]": {"molecular_target": "T1, S. pneumoniae HtrA protease domain (PD, residues 59-285) (Streptococcus pneumoniae, UniProt A0A0H2ZQD7 59-285)", "T1 construct": "HtrA serine protease of Streptococcus pneumoniae, protease domain alone, residues 59-285; 15N-labeled where it is the observed partner of an NMR titration; also called HtrA PD; PD WT; source: E. coli BL21(DE3), purified (Ni column, preparative sizing column)", "T1 sequence": "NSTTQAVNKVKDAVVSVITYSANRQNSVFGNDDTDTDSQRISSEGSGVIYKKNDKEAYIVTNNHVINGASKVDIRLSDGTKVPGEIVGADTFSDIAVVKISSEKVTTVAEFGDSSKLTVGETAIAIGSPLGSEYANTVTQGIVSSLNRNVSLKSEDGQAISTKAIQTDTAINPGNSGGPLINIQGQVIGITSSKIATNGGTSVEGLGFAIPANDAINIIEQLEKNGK", "assay": "NMR titration; 500 μM 15N-labeled PDZ titrated with unlabeled PD (0.5-4 mM); 15N-HSQC at 900 MHz, 35°C; 50 mM sodium phosphate pH 6, 50 mM NaCl; global fit of CSPs, single-site model", "details": "both partners purified"}, "[4]": {"molecular_target": "T1, S. pneumoniae HtrA protease domain (PD, …)", "assay": "NMR titration; 500 μM 15N-labeled PD titrated with unlabeled PDZ (0.25-4 mM); 15N-HSQC at 900 MHz, 35°C; 50 mM sodium phosphate pH 6, 50 mM NaCl; global fit of CSPs, single-site model", "details": "both partners purified"}}, "note": "Ends that are not written are not given here."}
{"binder": "B1", "values": [{"measurement": "stoichiometry N", "setting": "[1]", "result": 6}]}
{"binder": "B2", "values": [{"measurement": "Kd", "setting": "[2]", "result": "215 ± 35", "unit": "µM"}]}
{"binder": "B3", "values": [{"measurement": "Kd", "setting": "[3]", "result": "1000 ± 500", "unit": "µM"}, {"measurement": "Kd", "setting": "[4]", "result": "480 ± 43", "unit": "µM"}]}
